Experiments:
[1] = molecular target: the molecule itself; assay: SEC-MALS; peak 2 fractions (C7-D4) pooled, 1.3 mg/mL; Superose 6 Increase 10/300 GL in lysis buffer (50 mM HEPES pH 7.5, 150 mM NaCl, 0.5 mM TCEP, 10 mM MgCl2, 1 mM ADP); 0.5 mL/min
[2] = molecular target: the molecule itself; assay: SEC + other: negative-stain EM; Superose 6 Increase 10/300 GL in 50 mM HEPES pH 7.5, 150 mM NaCl, 0.5 mM TCEP, 10 mM MgCl2, 1 mM ADP; elution against a gel filtration standard; SEC fractions of peak 2 imaged after 2 % uranyl acetate stain

B1: MBP-NLRP3(Δexon3) (natural protein, human, UniProt Q96P20 3-1036, looked up)
chain: MASTRCKLARYLEDLEDVDLKKFKMHLEDYPPQKGCIPLPRGQTEKADHVDLATLMIDFNGEEKAWAMAVWIFAAINRRDLYEKAKRDEPKWDYRKKYRKYVRSRFQCIEDRNARLGESVSLNKRYTRLRLIKEHRSQQEREQELLAIGKTKTCESPVSPIKMELLFDPDDEHSEPVHTVVFQGAAGIGKTILARKMMLDWASGTLYQDRFDYLFYIHCREVSLVTQRSLGDLIMSCCPDPNPPIHKIVRKPSRILFLMDGFDELQGAFDEHIGPLCTDWQKAERGDILLSSLIRKKLLPEASLLITTRPVALEKLQHLLDHPRHVEILGFSEAKRKEYFFKYFSDEAQARAAFSLIQENEVLFTMCFIPLVCWIVCTGLKQQMESGKSLAQTSKTTTAVYVFFLSSLLQPRGGSQEHGLCAHLWGLCSLAADGIWNQKILFEESDLRNHGLQKADVSAFLRMNLFQKEVDCEKFYSFIHMTFQEFFAAMYYLLEEEKEGRTNVPGSRLKLPSRDVTVLLENYGKFEKGYLIFVVRFLFGLVNQERTSYLEKKLSCKISQQIRLELLKWIEVKAKAKKLQIQPSQLELFYCLYEMQEEDFVQRAMDYFPKIEINLSTRMDHMVSSFCIENCHRVESLSLGFLHNMPKEEEEEEKEGRHLDMVQCVLPSSSHAACSHGLVNSHLTSSFCRGLFSVLSTSQSLTELDLSDNSLGDPGMRVLCETLQHPGCNIRRLWLGRCGLSHECCFDISLVLSSNQKLVELDLSDNALGDFGIRLLCVGLKHLLCNLKKLWLVSCCLTSACCQDLASVLSTSHSLTRLYVGENALGDSGVAILCEKAKNPQCNLQKLGLVNSGLTSVCCSALSSVLSTNQNLTHLYLRGNTLGDKGIKLLCEGLLHPDCKLQVLELDNCNLTSHCCWDLSTLLTSSQSLRKLSLGNNDLGDLGVMMFCEVLKQQSCLLQNLGLSEMYFNYETKSALETLQEEKPELTVVFEPSW
notes: NLRP3, human, UniProt Q96P20, residues 3-1036 with the linker region encoded by exon 3 (residues 95-134) deleted; a TEV site stands between MBP and NLRP3; Calculated mass of the MBP-NLRP3(Δexon3) monomer is printed as 154.8 kDa; also called MBP-NLRP3 (∆95-134); source: baculovirus-infected Sf9 insect cells, purified (MBP-trap, SEC on Superose 6 Increase); not shown: MBP, N-terminal, kept
For B1, the “stoichiometry N” value [1] was 2.

B2: MBP-NLRP3(Δexon3) + GSGAGG linker (natural protein, human)
chain: MASTRCKLARYLEDLEDVDLKKFKMHLEDYPPQKGCIPLPRGQTEKADHVDLATLMIDFNGEEKAWAMAVWIFAAINRRDLYEKAKRDEPKWGSGAGGDYRKKYRKYVRSRFQCIEDRNARLGESVSLNKRYTRLRLIKEHRSQQEREQELLAIGKTKTCESPVSPIKMELLFDPDDEHSEPVHTVVFQGAAGIGKTILARKMMLDWASGTLYQDRFDYLFYIHCREVSLVTQRSLGDLIMSCCPDPNPPIHKIVRKPSRILFLMDGFDELQGAFDEHIGPLCTDWQKAERGDILLSSLIRKKLLPEASLLITTRPVALEKLQHLLDHPRHVEILGFSEAKRKEYFFKYFSDEAQARAAFSLIQENEVLFTMCFIPLVCWIVCTGLKQQMESGKSLAQTSKTTTAVYVFFLSSLLQPRGGSQEHGLCAHLWGLCSLAADGIWNQKILFEESDLRNHGLQKADVSAFLRMNLFQKEVDCEKFYSFIHMTFQEFFAAMYYLLEEEKEGRTNVPGSRLKLPSRDVTVLLENYGKFEKGYLIFVVRFLFGLVNQERTSYLEKKLSCKISQQIRLELLKWIEVKAKAKKLQIQPSQLELFYCLYEMQEEDFVQRAMDYFPKIEINLSTRMDHMVSSFCIENCHRVESLSLGFLHNMPKEEEEEEKEGRHLDMVQCVLPSSSHAACSHGLVNSHLTSSFCRGLFSVLSTSQSLTELDLSDNSLGDPGMRVLCETLQHPGCNIRRLWLGRCGLSHECCFDISLVLSSNQKLVELDLSDNALGDFGIRLLCVGLKHLLCNLKKLWLVSCCLTSACCQDLASVLSTSHSLTRLYVGENALGDSGVAILCEKAKNPQCNLQKLGLVNSGLTSVCCSALSSVLSTNQNLTHLYLRGNTLGDKGIKLLCEGLLHPDCKLQVLELDNCNLTSHCCWDLSTLLTSSQSLRKLSLGNNDLGDLGVMMFCEVLKQQSCLLQNLGLSEMYFNYETKSALETLQEEKPELTVVFEPSW
notes: NLRP3, human, UniProt Q96P20, residues 3-94 (before the deleted exon 3 linker 95-134); short flexible linker that replaces residues 95-134; NLRP3, human, UniProt Q96P20, residues 135-1036 (after the deleted exon 3 linker 95-134); also called ∆95-134 + linker (GSGAGG); source: baculovirus-infected Sf9 insect cells, purified (MBP-trap, SEC on Superose 6 Increase); not shown: MBP, N-terminal, kept
B2: binds [2].

— article PMC13226650, “Non-decameric NLRP3 reveals a TGN/MTOC-distal pathway of inflammasome activation” (Nature Communications, 2026)
